Assay results from patent US20070258981A1 (published 2007).
Substitutions are numbered along the chain they refer to. Names may count otherwise.

Tests used:
[1] = target: T1, human CD22 (hCD22) expressed on the cell surface (human, UniProt P20273 20-847); test: BHK-CD22 cell ELISA
T1 construct: whole, on cells; Used as capture agent in the BHK-CD22 cell ELISA and as target in flow cytometry; also called BHK-CD22; hCD22 expressing CHO cells

[2] = target: hCD22 immobilised on a CM5 sensor chip (BIAcore ligand) (human, UniProt P20273 20-687, limits assumed); test: BIAcore 3000 SPR; hCD22 amine-coupled to CM5 chip, IgG injected; global 1:1 fit
Method: Binding affinity of HB22.7 and RHOv2ACD/RKA were determined on a BIAcore 3000 instrument (BIAcore, Inc., Uppsala, Sweden). The ligand, hCD22, was prepared at 50 nM in 10 mM NaOAc, pH4 buffer. It was injected onto an EDC/NHS-activated CM5 sensor chip (BIAcore, Inc. Uppsala, Sweden) using a standard immobilization protocol. Following this, any unreacted active ester moieties were quenched using 1M Et-NH2 (ethanolamine; coupling reagents purchased from BIAcore, Inc.). A total of 535 and 689 RUs hCD22 remained bound to two sensor chip surfaces used in these experiments. Separately, a blank surface was prepared on each sensor chip using the identical protocol (minus protein). The blank surfaces were used as a reference cell in the experiments, and served to correct for both non-specific binding and some housekeeping artifacts.
For the kinetic experiments, HB22.7 and RHOv2ACD/RKA were prepared as two dilution series, starting at 22 nM and 100 nM, then diluted three- and two-fold, respectively, down to final concentrations of 0.03 nM and 0.39 nM in HBS-EP buffer (BIAcore, Inc., consisting of the following: 10 mM HEPES buffer, pH7.4, 150 mM NaCl, 3 mM EDTA, and 0.005% P20). Each concentration of IgG was then injected over both the CD22 and reference cell surfaces, which are connected in series. Between injections, surfaces were regenerated with a 1-minute injection of 3M MgCl2.

[3] = target: T1, human CD22 (hCD22) expressed on the …; test: binding to BHK-hCD22 cells
Method: The ability of chHB227 and its humanized variants to bind hCD22 was assessed in a cell based CD22 binding assay utilizing BHK cells expressing cell-surface human CD22 as a capture agent. Untransfected BHK cells not expressing hCD22 served as a control for non-specific binding. The BHK and BHK-CD22 lines were grown in DMEM supplemented with 10% Fetal Clone I and antibiotics. G418/Geneticin (0.75 mg/ml) was also added to the growth medium for BHK-CD22 only. The standard NCI protocol was used for the binding assay.

B1: antibody of chimeric HB22.7 heavy chain (chH) with HB227RKA light chain variable region (antibody, V domains shown)
VH: QVQLKESGPGLVAPSQSLSITCTVSGFSLSDYGVNWVRQIPGKGLEWLGIIWGDGRTDYNSALKSRLNISKDNSKSQVFLKMNSLKADDTARYYCARAPGNRAMEYWGQGTSVTVSS
VL: DIVMTQSPSSLSASVGDRVTITCKASQSVTNDVAWYQQKPGKAPKLLIYYASNRYTGVPSRFSGSGSGTDFTLTISSLQPEDFATYYCQQDYRSPWTFGGGTKVEIK
notes: Human IgG1/kappa, COS-7 supernatant; VL entry may include the DPK018 leader; also called chH+RKA
- binding result [1]: binds

B2: humanized antibody HB227RHF + HB227RKC (antibody, V domains shown)
VH: QVQLQESGPALVKPTQTLTLTCTVSGFSLSDYGVNWIRQPPGKALEWLGIIWGDGRTDYNSALKSRLSISKDNSKNQVVLRMTNVDPVDTATYFCARAPGNRAMEYWGQGTVVTVSS
VL: DIVMTQSPSSLSASVGDRVTITCKASQSVTNDVAWYQQKPGKAPKLLIYYASNRYTGVPDRFSGSGYGTDFTLTISSLQPEDFATYFCQQDYRSPWTFGGGTKVEIKR
notes: Human IgG1/kappa, COS-7 supernatant; also called RHF+RKC; humanized (RHF+RKC) antibody
- binding result [1]: binds

B3: humanized anti-hCD22 antibody RHOv2ACD/RKA (antibody, V domains shown)
VH: QVQLEESGGGVVRPGRSLRLSCAASGFTFSDYGVNWIRQAPGKGLEWVTIIWGDGRTDYNSALKSRFTVSRNNSNNTLSLQMNSLTTEDTAVYYCVRAPGNRAMEYWGQGVLVTVSS
VL: B1 VL
modifications: Labelled with Alexa Fluor 488 or 647 in some flow cytometry assays; unlabelled IgG in the BIAcore runs.
notes: VH keeps only the D30S back mutation; Labelled with Alexa Fluor 488 or 647 in some flow cytometry assays; also called HB227RHOv2ACD + HB227RKA; RHOvACD/RKA
- Kd [2]: 22 nM
- koff [2]: 0.00069 s⁻¹
- kon [2]: 32000 M⁻¹ s⁻¹

B4: humanized antibody HB227RHOv2ABCD + HB227RKA (antibody, V domains shown)
VH: B3 VH with S30D
VL: B1 VL
notes: VH without back mutations; Human IgG1/kappa, COS-7 supernatant; also called RHOv2ABCD+RKA
- binding result [3]: binds
